Consider three molecules from paper PMC9942304, “Identification of RimR2 as a positive pathway-specific regulator of rimocidin biosynthesis in Streptomyces rimosus M527”.

In data set [1] the target is T1, RimR2 (Streptomyces rimosus M527, UniProt A0ABY3YSD1 1-918).
T1 sequence: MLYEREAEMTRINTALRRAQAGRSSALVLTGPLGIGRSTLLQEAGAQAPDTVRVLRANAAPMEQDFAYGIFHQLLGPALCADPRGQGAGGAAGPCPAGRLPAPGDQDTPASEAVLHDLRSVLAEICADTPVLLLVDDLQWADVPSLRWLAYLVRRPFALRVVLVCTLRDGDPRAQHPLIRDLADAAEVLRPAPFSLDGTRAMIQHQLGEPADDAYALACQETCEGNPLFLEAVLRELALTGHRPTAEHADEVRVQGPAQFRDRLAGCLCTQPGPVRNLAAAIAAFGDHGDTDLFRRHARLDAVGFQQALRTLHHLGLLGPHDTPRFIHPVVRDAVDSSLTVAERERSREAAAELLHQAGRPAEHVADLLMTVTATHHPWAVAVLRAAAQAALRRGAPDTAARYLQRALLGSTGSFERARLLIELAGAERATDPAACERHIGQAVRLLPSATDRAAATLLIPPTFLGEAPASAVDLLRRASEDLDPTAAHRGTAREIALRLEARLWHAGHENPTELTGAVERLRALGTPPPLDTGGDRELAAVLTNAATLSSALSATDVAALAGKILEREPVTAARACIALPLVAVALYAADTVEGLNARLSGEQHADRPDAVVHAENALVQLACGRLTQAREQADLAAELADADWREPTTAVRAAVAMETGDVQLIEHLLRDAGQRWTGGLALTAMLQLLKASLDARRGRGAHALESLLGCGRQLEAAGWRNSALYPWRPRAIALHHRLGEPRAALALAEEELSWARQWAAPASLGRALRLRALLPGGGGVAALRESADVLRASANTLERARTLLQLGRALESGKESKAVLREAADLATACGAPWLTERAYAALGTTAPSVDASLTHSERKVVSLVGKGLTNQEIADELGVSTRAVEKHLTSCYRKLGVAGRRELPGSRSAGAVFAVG
The experiment in a line: EMSA; competed by 100-fold unlabeled probe; LightShift Chemiluminescent EMSA Kit (Thermo); 0.04 pmol/ul biotin probe, 10 ug RimR2; buffer, salt, pH and temperature not stated. The conditions noted are these: protein: recombinant; tags: His6 (pET32a, EcoRV/BamHI); blunt. (In general: A gel shift assay detects complexes by their altered migration in electrophoresis.)

In data set [2] the target is T1, RimR2. As to the kind of experiment: EMSA; LightShift Chemiluminescent EMSA Kit (Thermo); 0.04 pmol/ul biotin probe, 10 ug RimR2; buffer, salt, pH and temperature not stated. Particulars: protein: recombinant; tags: His6 (pET32a, EcoRV/BamHI); blunt.

B1: rimC promoter probe (dsDNA)
DNA 1: CCCCATCCTGATCACAAAAGACTAAGGGAAATGTTAAAGGTACGGTGTGC
DNA 2: GCACACCGTACCTTTAACATTTCCCTTAGTCTTTTGTGATCAGGATGGGG
With B1, the binding result with RimR2 [1] was “binds”.

B2: rimA promoter probe (dsDNA)
DNA 1: ATCACCGTGCACGAGGGCTGACGCCCGCCCGGGCAGGAGCTCGTGTCCGA
DNA 2: TCGGACACGAGCTCCTGCCCGGGCGGGCGTCAGCCCTCGTGCACGGTGAT
Consider B2, for which the binding result with RimR2 [1] is “binds”.

B3: rimR2 promoter probe (dsDNA)
DNA 1: TACCTACAAGAAATTGCGTATCACCTCACGCAAGGAACTCCGCGCGCGGA
DNA 2: TCCGCGCGCGGAGTTCCTTGCGTGAGGTGATACGCAATTTCTTGTAGGTA
Take B3: in the data set with RimR2 [2], the binding result was “binds”.
